± gives the standard error. For part of these data: Variants at the floor of the assay were thinned out.
B1: glmS ribozyme (parent)
chain: AUAAAAGCGCCAGAACUACAGAAAUGUAGUUGACGAGGAGGAGGUUUAUCGAAUUUUCGGCGGAUGCCUCCAAA

Legend:
Settings in all cases: with glucosamine-6-phosphate
glucosamine-6-phosphate [1] = variants of: B1; experiment: kcat; higher = faster cleavage; RNA array
Method in brief: (§1)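 Sequenced MiSeq chips were the platform: E. coli RNA polymerase transcribed barcoded ribozyme variants on them in situ, and a hybridised Cy3 probe tracked these at 37 °C. After glucosamine-6-phosphate (40 μM to 10 mM) in HEPES/KCl/Mg(OAc)2 buffer was flowed in, tiles were imaged over ~14 h. Signals normalised to baseline and to non-cleaving reference variants were reduced to per-tile medians and fit to one- or two-exponential decays to obtain kobs. kcat and KM were derived through weighted Michaelis–Menten fits across concentrations.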

glucosamine-6-phosphate [2] = variants of: B1; experiment: self-cleavage kobs at 160 uM GlcN6P; higher = faster cleavage; RNA array
Method in brief: as §1

glucosamine-6-phosphate [3] = variants of: B1; experiment: self-cleavage kobs at 640 uM GlcN6P; higher = faster cleavage; RNA array
Method in brief: as §1

glucosamine-6-phosphate [4] = variants of: B1; experiment: self-cleavage kobs at 2500 uM GlcN6P; higher = faster cleavage; RNA array
Method in brief: as §1

glucosamine-6-phosphate [5] = variants of: B1; experiment: self-cleavage kobs at 10000 uM GlcN6P; higher = faster cleavage; RNA array
Method in brief: as §1

glucosamine-6-phosphate [6] = variants of: B1; experiment: KM; higher = weaker cofactor use; RNA array
Method in brief: as §1

glucosamine-6-phosphate [7] = variants of: B1; experiment: self-cleavage kobs at 40 uM GlcN6P; higher = faster cleavage; RNA array
Method in brief: as §1

AUAAAAGCGCCAGAUCUACAGAAAUGUAGUUGACGAGGAUGAGGUUUAUCGAAUUUUCGGCGGAUGCCUCCAAA
kcat (glucosamine-6-phosphate [1]): 0.000328 ± 7.5e-05 s⁻¹ | self-cleavage kobs at 160 uM GlcN6P (glucosamine-6-phosphate [2]): 2.65e-05 ± 1.3e-05 s⁻¹ | self-cleavage kobs at 640 uM GlcN6P (glucosamine-6-phosphate [3]): 0.000117 ± 2.2e-05 s⁻¹ | self-cleavage kobs at 2500 uM GlcN6P (glucosamine-6-phosphate [4]): 0.000447 ± 6.9e-05 s⁻¹ | self-cleavage kobs at 10000 uM GlcN6P (glucosamine-6-phosphate [5]): 0.000273 ± 2.8e-05 s⁻¹

AUAAAAGCGCCAGAUCUACAGAAAUGUAGUUGACGAGGAGGAGGUUUAUCGAAUUUUCGGCGGAUCCCUCCAAA
kcat (glucosamine-6-phosphate [1]): 0.000125 ± 1.5e-05 s⁻¹ | KM (glucosamine-6-phosphate [6]): 7900 ± 1900 µM | self-cleavage kobs at 2500 uM GlcN6P (glucosamine-6-phosphate [4]): 3.02e-05 ± 1.1e-05 s⁻¹ | self-cleavage kobs at 10000 uM GlcN6P (glucosamine-6-phosphate [5]): 6.96e-05 ± 1.2e-05 s⁻¹

AUAAAAGCGCCAGAUCUACAGAAAUGUAGUGGACGAGGAGGAGGUUUAUCGAAUUUUCGGCGGAUGCCUCCAAA
kcat (glucosamine-6-phosphate [1]): 0.00129 ± 0.00024 s⁻¹ | KM (glucosamine-6-phosphate [6]): 2960 ± 980 µM | self-cleavage kobs at 40 uM GlcN6P (glucosamine-6-phosphate [7]): 1.82e-05 ± 8.3e-06 s⁻¹ | self-cleavage kobs at 160 uM GlcN6P (glucosamine-6-phosphate [2]): 0.000104 ± 2.2e-05 s⁻¹ | self-cleavage kobs at 640 uM GlcN6P (glucosamine-6-phosphate [3]): 0.000193 ± 3.7e-05 s⁻¹ | self-cleavage kobs at 2500 uM GlcN6P (glucosamine-6-phosphate [4]): 0.000572 ± 9.4e-05 s⁻¹ | self-cleavage kobs at 10000 uM GlcN6P (glucosamine-6-phosphate [5]): 0.00102 ± 0.00012 s⁻¹

AUAAAAGCGCCAGAUCUACAGAAAUGUAGUCGACGAGGAGGAGGUUUAUCGAAUUUUCGGCGGAUGCCUCCAAA
kcat (glucosamine-6-phosphate [1]): 0.00128 ± 0.0001 s⁻¹ | KM (glucosamine-6-phosphate [6]): 2710 ± 340 µM | self-cleavage kobs at 40 uM GlcN6P (glucosamine-6-phosphate [7]): 1.67e-05 ± 5.8e-06 s⁻¹ | self-cleavage kobs at 160 uM GlcN6P (glucosamine-6-phosphate [2]): 7.32e-05 ± 7.2e-06 s⁻¹ | self-cleavage kobs at 640 uM GlcN6P (glucosamine-6-phosphate [3]): 0.000233 ± 1.9e-05 s⁻¹ | self-cleavage kobs at 2500 uM GlcN6P (glucosamine-6-phosphate [4]): 0.000703 ± 6.9e-05 s⁻¹ | self-cleavage kobs at 10000 uM GlcN6P (glucosamine-6-phosphate [5]): 0.000981 ± 7.1e-05 s⁻¹

AUAAAAGCGCCAGAUCUACAGAAAUGUAGAUGACGAGGAGGAGGUUUAUCGAAUUUUCGGCGGAUGCCUCCAAA
kcat (glucosamine-6-phosphate [1]): 0.0245 ± 0.006 s⁻¹ | KM (glucosamine-6-phosphate [6]): 377 ± 130 µM | self-cleavage kobs at 40 uM GlcN6P (glucosamine-6-phosphate [7]): 0.00246 ± 0.0004 s⁻¹ | self-cleavage kobs at 640 uM GlcN6P (glucosamine-6-phosphate [3]): 0.0102 ± 0.0044 s⁻¹ | self-cleavage kobs at 10000 uM GlcN6P (glucosamine-6-phosphate [5]): 0.0272 ± 0.0062 s⁻¹

AUAAAAGCGCCAGAUCUACAGAAAUGUAGUUGACGAGGAGGAGGUUUAUCGAACUUUCGGCGGAUGCCUCCAAA
kcat (glucosamine-6-phosphate [1]): 0.00568 ± 0.0015 s⁻¹ | KM (glucosamine-6-phosphate [6]): 1560 ± 660 µM | self-cleavage kobs at 40 uM GlcN6P (glucosamine-6-phosphate [7]): 0.000186 ± 2.3e-05 s⁻¹ | self-cleavage kobs at 160 uM GlcN6P (glucosamine-6-phosphate [2]): 0.000292 ± 0.0001 s⁻¹ | self-cleavage kobs at 640 uM GlcN6P (glucosamine-6-phosphate [3]): 0.00189 ± 0.0003 s⁻¹ | self-cleavage kobs at 2500 uM GlcN6P (glucosamine-6-phosphate [4]): 0.00297 ± 0.00042 s⁻¹ | self-cleavage kobs at 10000 uM GlcN6P (glucosamine-6-phosphate [5]): 0.00553 ± 0.00066 s⁻¹

AUAAAAGCGCCAGAUCUACAGAAAUGUAGUUGACGAGGAGGAGGUUUAUCGAAGUUUCGGCGGAUGCCUCCAAA
kcat (glucosamine-6-phosphate [1]): 0.00446 ± 0.00053 s⁻¹ | KM (glucosamine-6-phosphate [6]): 1730 ± 330 µM | self-cleavage kobs at 40 uM GlcN6P (glucosamine-6-phosphate [7]): 8.2e-05 ± 2.2e-05 s⁻¹ | self-cleavage kobs at 160 uM GlcN6P (glucosamine-6-phosphate [2]): 0.000411 ± 6.8e-05 s⁻¹ | self-cleavage kobs at 640 uM GlcN6P (glucosamine-6-phosphate [3]): 0.00189 ± 0.00075 s⁻¹ | self-cleavage kobs at 2500 uM GlcN6P (glucosamine-6-phosphate [4]): 0.00279 ± 0.00048 s⁻¹ | self-cleavage kobs at 10000 uM GlcN6P (glucosamine-6-phosphate [5]): 0.00368 ± 0.0005 s⁻¹

AUAAAAGCGCCAGAUCUACAGAAAUGUAGUUGACGAGGAGGAGGUUGAUCGAAUUUUCGGCGGAUGCCUCCAAA
kcat (glucosamine-6-phosphate [1]): 0.000703 ± 0.00012 s⁻¹ | KM (glucosamine-6-phosphate [6]): 1160 ± 360 µM | self-cleavage kobs at 40 uM GlcN6P (glucosamine-6-phosphate [7]): 5.1e-05 ± 1.1e-05 s⁻¹ | self-cleavage kobs at 160 uM GlcN6P (glucosamine-6-phosphate [2]): 8.04e-05 ± 1.3e-05 s⁻¹ | self-cleavage kobs at 640 uM GlcN6P (glucosamine-6-phosphate [3]): 0.000238 ± 2.7e-05 s⁻¹ | self-cleavage kobs at 2500 uM GlcN6P (glucosamine-6-phosphate [4]): 0.000473 ± 5.8e-05 s⁻¹ | self-cleavage kobs at 10000 uM GlcN6P (glucosamine-6-phosphate [5]): 0.000653 ± 7.7e-05 s⁻¹

AUAAAAGCGCCAGAUCUACAGAAAUGUAGUUGACGAGGAGGAGGUUCAUCGAAUUUUCGGCGGAUGCCUCCAAA
kcat (glucosamine-6-phosphate [1]): 0.00038 ± 5e-05 s⁻¹ | KM (glucosamine-6-phosphate [6]): 862 ± 310 µM | self-cleavage kobs at 160 uM GlcN6P (glucosamine-6-phosphate [2]): 5.24e-05 ± 1.3e-05 s⁻¹ | self-cleavage kobs at 640 uM GlcN6P (glucosamine-6-phosphate [3]): 0.00024 ± 7.3e-05 s⁻¹ | self-cleavage kobs at 2500 uM GlcN6P (glucosamine-6-phosphate [4]): 0.00036 ± 5e-05 s⁻¹ | self-cleavage kobs at 10000 uM GlcN6P (glucosamine-6-phosphate [5]): 0.000325 ± 3.4e-05 s⁻¹

AUAAAAGCGCCAGAUCUACAGAAAUGUAGUUGACGAGGAGGAGGUGUAUCGAAUUUUCGGCGGAUGCCUCCAAA
kcat (glucosamine-6-phosphate [1]): 0.000901 ± 0.00012 s⁻¹ | KM (glucosamine-6-phosphate [6]): 1650 ± 380 µM | self-cleavage kobs at 160 uM GlcN6P (glucosamine-6-phosphate [2]): 6.81e-05 ± 1e-05 s⁻¹ | self-cleavage kobs at 640 uM GlcN6P (glucosamine-6-phosphate [3]): 0.000292 ± 3.4e-05 s⁻¹ | self-cleavage kobs at 2500 uM GlcN6P (glucosamine-6-phosphate [4]): 0.000642 ± 8.4e-05 s⁻¹ | self-cleavage kobs at 10000 uM GlcN6P (glucosamine-6-phosphate [5]): 0.000725 ± 7.1e-05 s⁻¹

AUAAAAGCGCCAGAUCUACAGAAAUGUAGUUGACGAGGAGGAGGUUUAUCGAAUUUUCGGCGAAUGCCUCCAAA
kcat (glucosamine-6-phosphate [1]): < 1e-05 s⁻¹ | self-cleavage kobs at 10000 uM GlcN6P (glucosamine-6-phosphate [5]): < 1e-05 s⁻¹

AUAAAAGCGCCAGAUCUACAGAAAUGUAGUUGACGAGGAGGAGGUUUAGGGAAUUUUCGGCGAAUGCCUCCAAA
kcat (glucosamine-6-phosphate [1]): 2.96e-05 ± 6.8e-06 s⁻¹ | self-cleavage kobs at 40 uM GlcN6P (glucosamine-6-phosphate [7]): < 1e-05 s⁻¹

AUAAAAGCGCCAGAUCUACAGAAAUGUAGUUUACGAGGAGGAGGUUUAUCGAAUUUUCGGCGGAUGUCUCCAAA
kcat (glucosamine-6-phosphate [1]): 0.000433 ± 0.00015 s⁻¹ | self-cleavage kobs at 640 uM GlcN6P (glucosamine-6-phosphate [3]): 3.29e-05 ± 1.4e-05 s⁻¹ | self-cleavage kobs at 2500 uM GlcN6P (glucosamine-6-phosphate [4]): 6.84e-05 ± 1.9e-05 s⁻¹ | self-cleavage kobs at 10000 uM GlcN6P (glucosamine-6-phosphate [5]): 0.000204 ± 3.8e-05 s⁻¹

AUAAAAGCGCCAGAUCUACAGAAAUGUAGUUGACGAGGAGUAGGUUUAUCGAAUUUUCGGCGGAUGCCUCCAAA
kcat (glucosamine-6-phosphate [1]): 0.000143 ± 2.5e-05 s⁻¹ | self-cleavage kobs at 160 uM GlcN6P (glucosamine-6-phosphate [2]): 4.82e-05 ± 1.4e-05 s⁻¹ | self-cleavage kobs at 640 uM GlcN6P (glucosamine-6-phosphate [3]): 0.000255 ± 5.3e-05 s⁻¹ | self-cleavage kobs at 2500 uM GlcN6P (glucosamine-6-phosphate [4]): 0.000115 ± 1.5e-05 s⁻¹ | self-cleavage kobs at 10000 uM GlcN6P (glucosamine-6-phosphate [5]): 0.000149 ± 1.7e-05 s⁻¹

AUAAAAGCGCCAGAUCUACAGAAAUGUAGUUGACGAGGAGGAGGUUUAACGAAUUUUCGGCGGAUGACUCCAAA
kcat (glucosamine-6-phosphate [1]): 2.42e-05 ± 8.1e-06 s⁻¹

Source: the supplement of paper PMC7125110
